According to patent CN114835808A (dated 2022):

Molecular target: T1, 重组cTnI抗原 (UniProt P19429 1-210, limits assumed)
T1 construct: Both are treated here as the same coating of the same experiment
Experiment: indirect ELISA, recombinant cTnI coated, enzyme-labelled secondary antibody

T1 sequence (P19429 whole entry): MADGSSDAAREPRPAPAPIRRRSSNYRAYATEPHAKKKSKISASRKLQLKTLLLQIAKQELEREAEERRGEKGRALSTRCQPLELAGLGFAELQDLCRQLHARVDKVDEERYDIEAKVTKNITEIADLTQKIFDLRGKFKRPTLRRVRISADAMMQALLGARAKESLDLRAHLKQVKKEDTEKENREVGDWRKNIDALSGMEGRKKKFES

B1: cTnI抗体突变4 (antibody, V domains shown)
VH: EVQLVESGGDLVTPGGSLKLSCTASGFTFSNYAMSWVRQTPEKRLEWVATISSGGTYTFYPDSVKGRFTISRDNAKNTLYLQMSSLRSEDTAIYYCTAAGAFDGEKALDYWGQGTSVTVSS
VL: DIQMNQSTSSLSASLGDRVTISCRASQDISSYLNWYQQRADGTIKLLIYFTSRLHSGVPSRFSGSGSGTDYSLTISNLEQEDIATYFCQQGNTVAATFGGGTRLEIK
notes: Mutant of a mouse anti-cTnI monoclonal antibody, made recombinantly by transient expression and purified on SPA; also called 突变抗体4
- binding result: no binding (tested: 检测值小于0.05基本可判定无活性 (阴性对照0.047左右))
